# Patent US20150246949A1, “Desmoglein 2 (DSG2) Binding Proteins and Uses Therefor” (UNIVERSITY OF WASHINGTON THROUGH ITS CENTER FOR …, priority 2012, published 2015)
# “Also recorded” adds a separate entry of the source.
# Legend:
# [1] = tested on: polarized colon cancer T84 cells; experiment: Transepithelial electrical resistance (TEER) permeability assay; assay type: cell-based; settings: for Effect on TEER: 5 μg dimeric Ad3 fiber knob added 1 hour to apical chamber
# Experimental: FIG. 5. Correlation of reduced DSG2 binding with the ability to open epithelial junctions. A) Transepithelial electrical resistance (TEER) measured on polarized colon cancer T84 cells. Cells were cultured in transwell chambers until the TEER was constant, i.e. tight junctions had formed. A total of 5 μg of dimeric Ad3 fiber knobs in PBS was then added for 1 hour to the apical chamber. TEER was measured at the indicated time points. N=6. For time points 1.5 and 4 hours the difference between JO-1 vs D261N and N186D was significant (p<0.01). The arrows indicate the addition and removal of Ad3 fiber knobs. B) Enhancement of irinotecan therapy. A total of 4×10^6 A549 cells were injected subcutaneously into CB17-SCID/beige mice. Once the tumor reached a volume of ˜100 mm^3 (day 15 after implantation), the mice were injected intravenously with 2 mg/kg JO-1, E299V, N186D, or PBS, followed by an intravenous injection of irinotecan (37.5 mg/kg) one hour later. The treatment was repeated on day 25. N=5. […] The difference between “irinotecan” vs “JO-1+irinotecan” was significant (p<0.01) from day 20 on.
# FIG. 9. Analysis of dimeric Ad3 fiber knob mutants with increased affinity to DSG2. A) Competition of Ad3-GFP virus infection on HeLa cells with dimeric affinity-enhanced mutant Y250F and JO-1 (dimeric wt Ad3 fiber knob). The experimental setting is as described for FIG. 3C. left panel: percentage of GFP positive cells. Right panel: mean fluorescence intensity. N=3. The standard deviation was less than 10%. B) Competition of Ad3-GFP virus infection on HeLa cells by Ad3 knob mutants with enhanced DSG2 binding but without dimerization domain. 1.5×10^5 HeLa cells were seeded into 24 well plates. Cells were incubated with the Ad3 knob mutants at the increasing concentrations for one hour at room temperature. 100 pfu/cell of Ad3GFP virus were then added and GFP expression was analyzed 18 hours later. C) TEER on colon cancer T84 cells. The experimental setting was the same as for FIG. 5A. The TEER at 4 hours is shown. N=3.
# A total of 5×10^5 T84 cells were seeded in 12 mm transwell inserts (PET membrane, with 0.4 μm pore size (Corning, N.Y.) and cultured for >14 days until transepithelial electrical resistance (TEER) was stable. Culture medium was changed every 2-3 days. The cells were exposed to DSG2 ligands (20 μg/ml) in adhesion medium (DMEM, 1% FBS, 2 mM MgCl2, 20 mM HEPES) for 15 min at room temperature and TEER was measured and calculated as described elsewhere (39).
# [2] = tested on: ovc316 xenograft tumors; experiment: Enhancement of PLD therapy in ovc316 ovarian cancer xenograft model; assay type: in vivo, CB17 mice; settings: weekly
# Experimental: FIG. 10. Combination of affinity-enhanced JO-1 versions with chemotherapy. A) Enhancement of irinotecan (I) therapy. The experimental setting was the same as in FIG. 5B. […] N=5. […] Mammary fat pad tumors were established from primary ovarian cancer ovc316 cells. Treatment was started when tumors reached a volume of 100 mm^3 Mice were injected intravenously with 2 mg/kg JO-1 or with 0.5 mg/kg JO-4, followed by an intravenous injection of PEGylated liposomal doxorubicin (PLD) (1 mg/kg) one hour later. Treatment was repeated weekly. […] A total of 4×10^6 TNBC MDA-MB-231 cells were injected into the mammary fat pad of CB17 SCID-beige mice. JO-4 (2 mg/kg) was intravenously injected 1 hour before the application of cetuximab (C) (10 mg/kg, i.p.) and nab-paclitaxel (nab-P) (5 mg/kg, i.v). Treatment was given weekly. N=10 P<0.01 at day 25 for nab-P+C vs JO-4+nab-P+C.
# A549, MDA-MB-231, and ovc316 xenograft tumors were established by injection of the corresponding tumor cells into the mammary fat pad (1:1 with Matrigel) of CB17 mice. TC1-DSG2 tumors were established by subcutaneous injection of TC1-DSG2 cells into DSG2 transgenic mice. […] Tumor volumes were measured three times a week. […]
# [3] = tested on: TC1-hDSG2 tumors; experiment: Repeated-cycle PLD therapy study in immunocompetent mice with TC1-hDSG2 tumors; assay type: in vivo, hDSG2 transgenic mice; settings: 2 mg/kg i.v. one hour before PLD/Doxil 1.5 mg/kg i.v.; 3rd and 4th cycles days 28 and 35; N=10
# Experimental: FIG. 11. Pharmacokinetics, toxicity, and immunogenicity of JO-4. A) Serum clearance of JO-1 and JO-4. hDSG2 transgenic mice with subcutaneous TC1-hDSG2 tumors (˜600 mm^3) were intravenously injected with JO-1 or JO-4 (2 mg/kg) and serum samples were analyzed for by ELISA. N=3. Note that the y-axis has a log scale. B) Lymphocyte and platelet counts in hDSG2/TC1-hDSG2 transgenic mice after JO-1 or JO-4 injection. N=3. C) Therapy studies in immunocompetent hDSG2 transgenic mice with TC1-hDSG2 tumors. When tumors reached a volume of ˜80 mm^3, JO-1 or JO-4 (2 mg/kg) or PBS was injected intravenously followed one hour later by PLD/Doxil (i.v. 1.5 mg/kg). Treatment was repeated as indicated by arrows. Tumors were then allowed to re-grow for about two weeks. From day 15 on serum anti-JO-1/J)-4 antibodies were detectable by ELISA. Two more treatment cycles were performed at day 28 and day 35. […] The difference between JO-1/PLD vs JO-4/PLD is significant from day 31 on. N=10.
# A549, MDA-MB-231, and ovc316 xenograft tumors were established by injection of the corresponding tumor cells into the mammary fat pad (1:1 with Matrigel) of CB17 mice. […] Tumor volumes were measured three times a week. […]
# JO-1 and JO-4 are virus-derived proteins and immunogenic. In immunocompetent mice, serum IgG antibodies against these proteins can be detected by ELISA two weeks after injection (5). […]
Molecule,Effect on TEER [1],Enhancement of PLD therapy ([2]; 2 mg/kg i.v. one hour before PLD 1 mg/kg i.v.),Enhancing effect on PLD therapy over repeated treatment cycles [3],Enhancement of PLD therapy ([2]; 0.5 mg/kg i.v. one hour before PLD 1 mg/kg i.v.),"TEER compared to JO-1 ([1]; dimeric affinity-enhanced mutants, TEER at 4 hours, N=3)"
D261N (protein) MKVSALKEKVSALKEKVSALKEKVSALKEKVSALKEGSGGGSGGGSGGGSNSIALKNNTLWTGPKPEANCIIEYGKQNPDSKLTLILVKNGGIVNGYVTLMGASDYVNTLFKNKNVSINVELYFDATGHILPDSSSLKTDLELKYKQTADFSARGFMPSTTAYPFVLPNAGTHNENYIFGQCYYKASNGALFPLEVTVMLNKRLPDSRTSYVMTFLWSLNAGLAPETTQATLITSPFTFSYIREDD,no effect on the TEER,–,–,–,–
JO-1: recombinant protein with the Ad3 fiber knob and a domain for self-dimerization of trimeric knobs (SEQ ID NO:27) (protein) MKVSALKEKVSALKEKVSALKEKVSALKEKVSALKEGSGGGSGGGSGGGSNSIALKNNTLWTGPKPEANCIIEYGKQNPDSKLTLILVKNGGIVNGYVTLMGASDYVNTLFKNKNVSINVELYFDATGHILPDSSSLKTDLELKYKQTADFSARGFMPSTTAYPFVLPNAGTHNENYIFGQCYYKASDGALFPLEVTVMLNKRLPDSRTSYVMTFLWSLNAGLAPETTQATLITSPFTFSYIREDD,rapid decrease in the TEER,significantly increased the treatment efficiency,enhancing effect on PLD therapy; also recorded: continued to be effective after multiple treatment cycles,–,–
JO-4 (protein) MKVSALKEKVSALKEKVSALKEKVSALKEKVSALKEGSGGGSGGGSGGGSNSIALKNNTLWTGPKPEANCIIEYGKQNPDSKLTLILVKNGGIVNGYVTLMGASDYVNTLFKNKNVSINVELYFDATGHILPDSSSLKTDLELKYKQTADFSARGFMPSTTAYPFVLPNAGTHNENFIFGQCYYKASDGALFPLEVTVMLNKRLPDSRTSYVMTFLWSLNAGLAPETTQATLITSPFTFSYIREDD,–,–,enhancing effect on PLD therapy; also recorded: significantly stronger; also recorded: continued to be effective after multiple treatment cycles,even greater stimulating effect on PLD therapy; also recorded: enhances PLD therapy in an ovarian cancer model at lower dose than JO-1,significantly higher
